# Measured values: patent US20140105889A1 (published 2014)
# Residue numbers refer to the chain shown, from its start. Names may count otherwise.
# B1: IL6R-BP209/IL6R-L (antibody, human IgG1)
# heavy: QVQLQESGPGLVKPSETLSLTCAVSGHSISHDHAWSWVRQPPGEGLEWIGFISYSGITNYNPSLQGRVTISRDNSKNTLYLQMNSLRAEDTAVYYCARSLARTTAMDYWGEGTLVTVSSASTKGPSVFPLAPSSKSTSGGTAALGCLVKDYFPEPVTVSWNSGALTSGVHTFPAVLQSSGLYSLSSVVTVPSSSLGTQTYICNVNHKPSNTKVDKKVEPKSCDKTHTCPPCPAPELLGDDSVFLFPPKPKDTLMISRTPEVTCVVVDVSDEDGEVKFNWYVDGVEVHNAKTKPREEQYNSTYRVVSVLTVLHQDWLNGKEYKCKVSNAALPRPIEKTISKAKGQPREPQVYTLPPSRDELTKNQVSLTCLVKGFYPSDIAVEWESNGQPENNYKTTPPVLDSDGSFFLYSKLTVDKSRWQQGNVFSCSVMHEALHNHYTQESLSLSP
# light: DIQMTQSPSSLSASVGDRVTITCRASQDISSYLNWYQQKPGKAPKLLIYYTSRLHSGVPSRFSGSGSGTDFTFTISSLQPEDIATYYCQQGNTLPYTFGQGTKVEIK
# notes: Anti-human IL-6 receptor IgG1 Fc variant
# B2: IL6R-BP212/IL6R-L (antibody, human IgG1)
# heavy: B1 heavy with E235D, D239G, Y298D, A328K
# light: B1 light
# notes: as for B1
# B3: IL6R-BP213/IL6R-L (antibody, human IgG1)
# heavy: B1 heavy with E235D, D239G, A328K
# light: B1 light
# notes: as for B1
# B4: IL6R-BF648/IL6R-L (antibody, human IgG1)
# heavy: not shown
# light: B1 light
# notes: IL6R-B3 with P238D; copies: 2 + 2
# B5: IL6R-BP082/IL6R-L (antibody, human IgG1)
# heavy: B1 heavy with E235D, D239G, D270H, G273P, A328K, R332K
# light: B1 light
# notes: copies: 2 + 2
# B6: IL6R-BP129/IL6R-L (antibody, human IgG1)
# heavy: B1 heavy with E235D, D239G, D270H, G273P, Y298D, A328K, R332K
# light: B1 light
# notes: copies: 2 + 2
# B7: IL6R-BP146/IL6R-L (antibody, human IgG1)
# heavy: B1 heavy with L236Y, D270H, G273P, R332A
# light: B1 light
# notes: positions are EU numbering, not positions on the entry
# B8: IL6R-BP152/IL6R-L (antibody, human IgG1)
# heavy: B1 heavy with E235D, L236Y, D270H, G273P, Y298D
# light: B1 light
# notes: EU numbering
# B9: IgG1-F271 (antibody, name in EU numbering)
# heavy: QVQLQESGPGLVKPSETLSLTCAVSGHSISHDHAWSWVRQPPGEGLEWIGFISYSGITNYNPSLQGRVTISRDNSKNTLYLQMNSLRAEDTAVYYCARSLARTTAMDYWGEGTLVTVSSASTKGPSVFPLAPSSKSTSGGTAALGCLVKDYFPEPVTVSWNSGALTSGVHTFPAVLQSSGLYSLSSVVTVPSSSLGTQTYICNVNHKPSNTKVDKKVEPKSCDKTHTCPPCPAPELLGGPSVFLFPPKPKDTLYISRTPEVTCVVVDVSHEDPEVKFNWYVDGVEVHNAKTKPREEQYNSTYRVVSVLTVLHQDWLNGKEYKCKVSNKALPAPIEKTISKAKGQPREPQVYTLPPSRDELTKNQVSLTCLVKGFYPSAIAVEWESNGQPENNYKTTPPVLDSDGSFFLYSKLTVDKSRWQQGNVFSCSVFHEALHYHYTQKSLSLSP
# light: not shown
# notes: Fc variant of VH3-IgG1; copies: 2 + 2
# B10: IgG1-F273 (antibody, name in EU numbering)
# heavy: B9 heavy with A378D, E384A
# light: not shown
# notes: as for B9
# B11: IgG1-F276 (antibody, name in EU numbering)
# heavy: B9 heavy with D272F, V310P, A378D, E384A, F430M
# light: not shown
# notes: as for B9
# B12: IgG1-F281 (antibody, name in EU numbering)
# heavy: B9 heavy with V310P, A378D, E384A
# light: not shown
# notes: as for B9
# B13: IL6R-BP182/IL6R-L (antibody, human IgG1)
# heavy: B1 heavy with E235D, D239G, D270H, Y298D, A328K, R332K
# light: B1 light
# notes: EU numbering
# B14: IL6R-BP205/IL6R-L (antibody, human IgG1)
# heavy: B1 heavy with E235D, D239G, D270H, Y298D, A328K
# light: B1 light
# notes: as for B1
# B15: IL6R-BP208/IL6R-L (antibody, human IgG1)
# heavy: B1 heavy with E235D, A328K
# light: B1 light
# notes: as for B1
# B16: IL6R-BP207/IL6R-L (antibody, human IgG1)
# heavy: B1 heavy with E235D, D239G, D270H, G273P, A328K
# light: B1 light
# notes: as for B1
# B17: IL6R-BP210/IL6R-L (antibody, human IgG1)
# heavy: B1 heavy with A328K
# light: B1 light
# notes: as for B1
# B18: VH3/L(WT)-IgG1-F140 (antibody)
# heavy: B9 heavy with S241K, V310P, A378D, F430M
# light: not shown
# notes: copies: 2 + 2
# B19: antibody with VH3-IgG1-F157 heavy chain and L(WT)-CK light chain (antibody)
# heavy: B9 heavy with Y254M, P259A, V310P, A378D, F430L
# light: not shown
# notes: copies: 2 + 2
# B20: antibody with VH3-IgG1-F424 heavy chain and L(WT)-CK light chain (antibody)
# heavy: B9 heavy with S241K, Y254M, P259A, V310P, A378D, F430L
# light: not shown
# notes: copies: 2 + 2
# B21: IgG1-F919 (antibody, name in EU numbering)
# heavy: B9 heavy with D282G, A378D, N386A, N391A, F430M
# light: not shown
# B22: IgG1-F928 (antibody, name in EU numbering)
# heavy: B9 heavy with T309Q, Q313A, A378D, F430M, Y438I
# light: not shown
# B23: IgG1-F936 (antibody, name in EU numbering)
# heavy: B9 heavy with G239R, P240D, T252V, A378D, F430M
# light: not shown
# B24: IgG1-F941 (antibody, name in EU numbering)
# heavy: B9 heavy with N288E, T309Q, Q313A, A378D, F430M, Y438V
# light: not shown
# Biological target: T1, FcγRIIb (human, UniProt P31994 43-217, limits assumed)
# T1 construct: Soluble analyte in Biacore; also called FcgRIIb; FcγIIB
# T1 sequence: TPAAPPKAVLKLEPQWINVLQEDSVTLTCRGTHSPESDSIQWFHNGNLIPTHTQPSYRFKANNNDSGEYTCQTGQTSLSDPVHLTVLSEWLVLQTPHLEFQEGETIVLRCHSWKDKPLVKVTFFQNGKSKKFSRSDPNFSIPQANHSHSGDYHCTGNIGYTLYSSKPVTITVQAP
# Assay: SPR (Biacore); ratio against the parent IL6R-B3/IL6R-L
row,Binder,KD(IIb) of the parent polypeptide/KD(IIb) of the altered polypeptide [fold]
1,B1,80.4
2,B2,16.7
3,B3,17.5

# Biological target: T2, human FcγRIIa type R (human, UniProt P12318 36-217)
# T2 construct: also called FcγRIIaR; FcγRIIa(R)
# T2 chain: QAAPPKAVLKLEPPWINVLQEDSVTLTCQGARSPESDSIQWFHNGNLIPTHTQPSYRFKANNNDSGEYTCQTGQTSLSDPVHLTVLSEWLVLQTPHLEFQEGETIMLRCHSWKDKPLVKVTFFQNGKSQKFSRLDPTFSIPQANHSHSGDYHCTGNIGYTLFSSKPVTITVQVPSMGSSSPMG
# Assay: SPR (Biacore), captured antibody, FcγR as analyte, 25 C
row,Binder,Kd [nM]
1,B4,1500
2,B5,1200
3,B6,1500

# Biological target: T3, FcγRIIb (human, UniProt P31994 43-217, limits assumed)
# T3 construct: also called FcγIIB; FcgRIIb
# T3 sequence: T1 sequence
# Assay: ratio of SPR KD values of this variant (FcγRIIaH over FcγRIIb)
row,Binder,KD (IIaH)/KD (IIb)
1,B7,50
2,B8,136

# Biological target: T3, FcγRIIb
# Assay: ratio of SPR KD values of this variant (FcγRIIaR over FcγRIIb)
row,Binder,KD (IIaR)/KD (IIb)
1,B7,9.3
2,B8,19.5

# Biological target: T4, human FcγRIIb (human, UniProt P31994 43-217, limits assumed)
# T4 construct: also called FcγIIB; hFcgRIIb
# T4 sequence: T1 sequence
# Assay: ratio of this variant's SPR KD for FcγRIIaH to its KD for FcγRIIb
row,Binder,KD (IIaH)/KD (IIb)
1,B4,33.9
2,B5,69
3,B6,77.5

# Biological target: T4, human FcγRIIb
# Assay: ratio of this variant's SPR KD for FcγRIIaR to its KD for FcγRIIb
row,Binder,KD (IIaR)/KD (IIb)
1,B4,13
2,B5,22.5
3,B6,29.3

# Biological target: T5, human FcRn (soluble human FcRn complexed with beta2-microglobulin) (human, UniProt P61769 21-119)
# T5 construct: Soluble human FcRn complexed with beta2-microglobulin; also called hFcRn
# Assay: Biacore SPR, antibody captured on Protein L, human FcRn analyte, pH 7.0
row,Binder,Kd [nM]
1,B9,690
2,B10,650
3,B11,41
4,B12,92

# Biological target: T6, FcγRIIa type H (human, UniProt P12318 36-217)
# T6 construct: also called FcγRIIaH; FcγRIIa(H)
# T6 sequence: T2 chain with R133H
# Assay: SPR (Biacore), captured antibody, FcγR as analyte, method of Example 14
row,Binder,Kd [nM]
1,B7,1600
2,B13,2600

# Biological target: T7, FcγRIIIa type V (human, UniProt P08637 17-208, limits assumed)
# T7 construct: also called FcγRIIIaV; FcγRIIIa(V)
# Assay: as above
row,Binder,Kd [nM]
1,B7,30000
2,B8,40000
3,B13,68000

# Biological target: T4, human FcγRIIb
# Assay: SPR KD for FcγRIIb of parent IL6R-B3/IL6R-L divided by that of this variant
row,Binder,KD(IIb) of the parent polypeptide/KD(IIb) of the altered polypeptide
1,B5,5.6
2,B6,8

# Biological target: T8, FcγRIIa type H (human, UniProt P12318 36-217)
# T8 construct: Soluble analyte in Biacore; also called FcγRIIaH; FcγRIIa(H)
# T8 sequence: T2 chain with R133H
# Assay: SPR (Biacore), antibody captured on chip, FcγR as analyte, method of Example 14
row,Binder,Kd [nM]
1,B14,26000
2,B15,8300
3,B2,2200

# Biological target: T1, FcγRIIb
# Assay: as above
row,Binder,Kd [nM]
1,B16,640
2,B1,5100
3,B17,39000
4,B3,160

# Biological target: T9, FcγRIIIa type V (human, UniProt P08637 17-208, limits assumed)
# T9 construct: Soluble analyte in Biacore; also called FcγRIIIaV; FcγRIIIa(V)
# Assay: as above
row,Binder,Kd [nM]
1,B14,65000
2,B16,65000
3,B15,55000
4,B1,41000
5,B3,63000

# Biological target: T10, mouse FcγRIV (mouse)
# T10 construct: Bought soluble receptor; also called mFcgRIV; mFcgR IV
# Assay: SPR (Biacore), antibody captured on Protein L, mouse FcγR as analyte, pH 7.4, 25 C
# T10 sequence (A0A0B4J1G0 21-203): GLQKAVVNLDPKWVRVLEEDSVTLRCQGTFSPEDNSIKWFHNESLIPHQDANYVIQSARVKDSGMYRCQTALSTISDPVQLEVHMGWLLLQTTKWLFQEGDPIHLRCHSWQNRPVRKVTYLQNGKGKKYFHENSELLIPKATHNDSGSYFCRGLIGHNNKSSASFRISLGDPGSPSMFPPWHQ
row,Binder,BINDING AMOUNT (RU)
1,B18,108
2,B19,243
3,B20,138

# Biological target: T11, human FcRn (soluble human FcRn complexed with beta2-microglobulin) (human, UniProt P61769 21-119)
# T11 construct: also called hFcRn
# Assay: SPR (Biacore), pH 7.0, 25 C, antibody captured by Protein L, human FcRn as analyte
row,Binder,Kd [nM]
1,B21,330
2,B22,29
3,B23,320
4,B24,12
